The target in this experiment is ADM (agonist of the ADM-Bioassay, human or mouse not told). In words: cell-based or functional assay.

The record followed here is patent EP2594588A1.

Non specific mouse IgG (antibody): the Maximal inhibition of ADM bioactivity (ADM-Bioassay) (%) amounted to 0%.
